These results are taken from US20210095028A1 (NANJING LEGEND BIOTECH, published 2021).

Where a chain is given by its changes, count along the chain named.

Broadly, the EC50 is the concentration needed to bring the measured effect to its halfway point. A higher EC50 goes with a need for much substance. Broadly, the Kd is the constant that tells how readily two partners part at equilibrium. One may read the koff as the rate constant with which the complex falls apart. For orientation: kon means the rate constant with which the complex forms. Higher therefore signals faster complex formation. What is called IC50 is the concentration that inhibits the measured activity by half.

Test [1] has as its target T1, human TIGIT over-expressed on cells (human, UniProt Q495A1 22-244).
T1 construct: also called CHO-K1/human TIGIT cells; CHO cells expressing human TIGIT
T1 sequence: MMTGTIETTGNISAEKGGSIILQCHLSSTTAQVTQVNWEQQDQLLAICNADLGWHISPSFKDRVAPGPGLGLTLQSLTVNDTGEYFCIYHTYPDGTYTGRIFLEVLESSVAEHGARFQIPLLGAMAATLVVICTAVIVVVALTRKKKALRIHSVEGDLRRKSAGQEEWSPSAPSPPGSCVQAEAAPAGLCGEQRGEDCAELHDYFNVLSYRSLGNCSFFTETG
Briefly: FACS, CHO-K1 cells over-expressing human TIGIT. The method, then: (§1) The mixture was equilibrated for 30 minutes at room temperature and washed three times with FACS buffer (PBS containing 1% BSA). iFluor labeled goat anti-mouse IgG as the secondary antibody was added and incubated at room temperature for 45 min. Finally, the cells were washed 3 time with PBS, and the signal was read by FACS BD Calibur. Data was analyzed with PRISM™ (GraphPad Software, San Diego, Calif.) using non-linear regression and EC₅₀ values were calculated.
On the technique in general: In flow cytometry, cells or beads pass a laser one at a time.

The target in test [2] is T2, Human TIGIT protein with HIS tag (human, UniProt Q495A1 22-141).
T2 construct: A soluble analyte is probably only the extracellular part; also called human TIGIT recombinant protein; not shown: HIS tag
T2 sequence: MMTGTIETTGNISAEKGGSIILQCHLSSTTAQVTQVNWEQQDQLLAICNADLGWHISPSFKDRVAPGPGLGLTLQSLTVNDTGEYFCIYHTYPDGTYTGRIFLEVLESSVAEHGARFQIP
Briefly: SPR Biacore T200; antibody Fc-captured, TIGIT-His analyte. The method, then:
Binding kinetics of mouse anti-human TIGIT monoclonal antibodies to human TIGIT were determined using a Surface Plasmon Resonance (SPR) biosensor, BIACORE® T200 (GE Healthcare; Little Chalfont, United Kingdom). […] Each mouse anti-human TIGIT monoclonal antibody was immobilized on the sensor chip through the Fc capture method. Human TIGIT protein with HIS tag was used as the analyte. The dissociation (kd) and association (kₐ) rate constants were obtained using the BIACORE® T200 evaluation software. The apparent equilibrium dissociation constants (KD) were calculated from the ratio of kd over kₐ.
(In general: In SPR one partner is held on a chip, and binding of the other changes the refractive index at the surface.)

Test [3] concerns the target T1, human TIGIT over-expressed on cells. Nature of the test: competition FACS, CHO cells expressing human TIGIT; competitor PVR recombinant protein. The method, then: The mixture was equilibrated for 30 minutes at room temperature, and washed three times with FACS buffer (PBS containing 1% BSA). PE/Cy5 Streptavidin secondary antibody was then added to the mixtures and incubated for 15 minutes at room temperature. Subsequently, the cells were washed with FACS buffer and analyzed by flow cytometry. Data was analyzed with PRISM™ (GraphPad Software, San Diego, Calif.) using non-linear regression, and IC₅₀ values were calculated (FIGS. 4A-4B and Table 6).

Test [4] deals with T3, cynomolgus TIGIT over-expressed on CHO-K1 cells (cynomolgus, UniProt A0A7N9I9V4 89-312).
T3 construct: whole, on cells; also called CHO-K1/cynomolgus TIGIT cells
T3 sequence (A0A7N9I9V4 entry or part of it): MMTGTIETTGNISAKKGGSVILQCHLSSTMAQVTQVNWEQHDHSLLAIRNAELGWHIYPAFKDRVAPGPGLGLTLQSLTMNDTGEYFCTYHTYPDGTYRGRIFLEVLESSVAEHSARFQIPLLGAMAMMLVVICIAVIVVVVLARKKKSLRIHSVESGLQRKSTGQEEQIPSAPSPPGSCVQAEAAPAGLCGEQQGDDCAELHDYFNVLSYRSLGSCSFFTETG
Nature of the test: FACS, CHO-K1 cells over-expressing cynomolgus TIGIT. The method, then:
as §1

In test [5] the target is T1, human TIGIT over-expressed on cells. Nature of the test: cell-based or functional assay.
Test [6] has the same target. Briefly: cell-based or functional assay. This is another data set of the same source.

B1: 11D8E12A4 (antibody, V domains shown)
VH: EVLLQQSGPELVKPGASVKIPCKASGYTFTDYNMDWVKQSHGKSLEWIGDINPNNGGTIYNQKFKGKATLTVDKSSSTAYMELRSLTSEDTAVYYCARRWLLLVYTMDYWGQGTSVTVSS
VL: QIVLTQSPAIMSASPGEKVTISCSASSSVSYMYWYQQKPGSSPKPWIYRTSNLASGVPARFSGSGSGTSYSLTISSMEAEDAATYYCHQYHNYPPTFGGGTKLEIK
notes: Mouse monoclonal antibody; also called mouse anti-human TIGIT monoclonal antibody 11D8E12A4
Consider B1, for which, in test [1], the “Bottom (best-fit)” value turned out to be 8.3, the EC50 worked out at 16.3 nM and the “Top (best-fit)” value was 159. In test [2], this molecule returned a Kd of 14 nM, a koff of 0.0087 s⁻¹ and a kon of 640000 M⁻¹ s⁻¹. Also, in test [3], the “Bottom (best-fit)” value came to 21.2, the 50% inhibitory concentration (IC50) stood at 73.5 nM and the “Top (best-fit)” value is 108.

B2: 16F10H12C11 (antibody, V domains shown)
VH: B1 VH with M34I, N55T, T106A, M107V
VL: B1 VL with S30T, P39A, S62G, H88Q, N92S, Y93F
notes: Mouse monoclonal antibody; also called mouse anti-human TIGIT monoclonal antibody 16F10H12C11
As for B2, in test [1], the “Bottom (best-fit)” value was found to be 6.83, the EC50 is 11.2 nM and the “Top (best-fit)” value turned out to be 188. In test [2], this molecule came in with an equilibrium dissociation constant (Kd) of 18 nM, an off-rate constant (koff) of 1.2 s⁻¹ and a kon of 6.7e+07 M⁻¹ s⁻¹.

B3: 128E3G7F5 (antibody, V domains shown)
VH: EVLLQQSGPELVKTGASVKISCKASGYSFTAYYMHWVKQSHGKSLEWIGYISCYNGATTYNQKFKGKATFTVDTSSTTAYMQFNSLTSEDSAVYYCARRVYYGYDEALVYWGQGTSVTVSS
VL: DIVMTQSPSSLSVSAGEKVTMTCKSSQSLLNSGNQKNYLAWYQQKPGQPPKLLIYGASTRGSGVPDRFTGSGSGTDFTLTISSVQAEDLAVYYCQNDHSYPYTFGGGTKLEIK
notes: Mouse monoclonal antibody; also called mouse anti-human TIGIT monoclonal antibody 128E3G7F5
For the molecule B3, in test [4], the “Bottom (best-fit)” value was found to be 7.5, the EC50 is 8.38 nM and the “Top (best-fit)” value came to 66.2. Also, in test [1], the “Bottom (best-fit)” value was determined as 16.2; the midpoint of the response, the EC50, lay at 0.3 nM; the “Top (best-fit)” value worked out at 98.7. Further, in test [5], the “luciferase signal in T cell activation, Bottom (best-fit)” value turned out to be 4.5; the “luciferase signal in T cell activation, EC50” value was 8.54 nM; the “luciferase signal in T cell activation, Top (best-fit)” value came to 99. In test [2], this molecule registered a Kd of 6.7 nM, a koff of 0.008 s⁻¹ and a kon of 1.2e+06 M⁻¹ s⁻¹. Moreover, in test [3], the “Bottom (best-fit)” value was determined as 8.8, the IC50 was 1.1 nM and the “Top (best-fit)” value came to 69.7.

B4: 139E2C2D2 (antibody, V domains shown)
VH: EVQLVESGGDLVKPGGSLKLSCAASGFTFSSYGMSWVRQTPDKRLEWVAIISSGGNYTYYPDSVKGRFTISRDNAKNTLYLQMSSLKSEDTAMYYCARQIHYFFAMDYWGQGTSVTVSS
VL: DIQMTQSPASLSVSVGETVTITCRASENIYSNLAWYQQKQGKSPQLLVYAATNLADGAPSRFSGSRSGTQYSLKINSLQSEDFGSYYCQHFWGTAYTFGGGTKLEIK
notes: Mouse monoclonal antibody; also called mouse anti-human TIGIT monoclonal antibody 139E2C2D2
On to B4, for which, in test [4], the “Bottom (best-fit)” value turned out to be 7.6, a half-maximal effect (EC50) was put at 18.5 nM and the “Top (best-fit)” value is 53.8. Further, in test [1], the “Bottom (best-fit)” value worked out at 13.8, the EC50 turned out to be 0.37 nM and the “Top (best-fit)” value amounted to 89.9. In test [2], this molecule came in with a dissociation constant (Kd) of 3 nM, a koff of 0.0062 s⁻¹ and a kon of 2.1e+06 M⁻¹ s⁻¹. In test [3], the “Bottom (best-fit)” value stood at 10.4, the IC50 was 0.7 nM and the “Top (best-fit)” value stood at 73.8.

B5: 8F2D8E7 (antibody, V domains shown)
VH: QVQLQQSGAELVKPGASVKLSCKTSGYTFTSYWIQWIKQRPGQGLGWIGEIFPGTGTTYYNEKFKGKATLTIDTSSSTAYMQLSSLTSEDSAVYSCARSRDGKVVDYWGQGTSVTVSS
VL: DVQMTQTTSSLSASLGDRVTISCRASQDISNFLNWYQQRPDGTVKLLIYYTSKLHSGVPSRFSGSGSGTDYSLTIRNLEKEDIATYFCQQGNTPPYTFGGGTKLEIK
notes: Mouse monoclonal antibody; also called mouse anti-human TIGIT monoclonal antibody 8F2D8E7
Consider B5, for which, in test [1], the “Bottom (best-fit)” value was 12.9, it took 1.28 nM to reach a half-maximal effect (EC50) and the “Top (best-fit)” value was found to be 276. In test [2], this molecule yielded a Kd of 2.6 nM, a koff of 0.0033 s⁻¹ and a kon of 1.3e+06 M⁻¹ s⁻¹. For the same molecule, in test [3], the “Bottom (best-fit)” value came to 11.2, the IC50 worked out at 0.9 nM and the “Top (best-fit)” value was 131.

B6: 70A11A8E6 (antibody, V domains shown)
VH: DVQLQESGPGLVKPSQSLSLTCTVTGYSITSDYAWNWIRQFPGNKLEWMGYIIYSGSTSYNPSLKSRISITRDTSKNQFFLQLNSVTTEDTATYYCARGWFRRPDYWGQGTTLTVSS
VL: DIVMTQSHEFMSTSLGDRVSITCKASQDVSTAVAWHQQKPGQSPKQLIYSASYRYTGVPDRFTGSGSGTDFTFTISNMQAEDLAVYYCQQHYSVPLTFGAGTKLELK
notes: Mouse monoclonal antibody; also called mouse anti-human TIGIT monoclonal antibody 70A11A8E6
B6: in test [1], the “Bottom (best-fit)” value was 11, the EC50 came out at 0.96 nM and the “Top (best-fit)” value was 263. In test [2], this molecule registered a Kd of 5.2 nM, an off-rate constant (koff) of 0.0044 s⁻¹ and a kon of 860000 M⁻¹ s⁻¹. In test [3], the “Bottom (best-fit)” value was determined as 19.6, the IC50 came to 0.7 nM and the “Top (best-fit)” value stood at 113.

B7: 100C4E7D11 (antibody, V domains shown)
VH: EVMLVESGGGLVKPGGSLKLSCAASGFTFSFYTMSWVRQTPEKRLEWVATISSGGGSTYYSDSVKGRFTISRDNAKNNLYLQMTSLRSEDTALYYCSRSLPVDYWGQGTTLTVSS
VL: QIVLTQSPAIMSASLGERVTMTCTASSSVSSTYLHWYQQKPGSSPKLWIYSTSNLASGVPARFSGSGSGTSYSLTISSMEAEDAATYYCHLYHHSPYTFGGGTKLEIK
notes: Mouse monoclonal antibody; also called mouse anti-human TIGIT monoclonal antibody 100C4E7D11
As to B7, in test [4], the “Bottom (best-fit)” value turned out to be 16.9, the EC50 stood at 1.16 nM and the “Top (best-fit)” value worked out at 410. Besides, in test [1], the “Bottom (best-fit)” value came to 14, the EC50 came to 0.81 nM and the “Top (best-fit)” value amounted to 107. Also, in test [6], the “IL-2 secretion in T cell activation, Bottom (best-fit)” value stood at 107; the “IL-2 secretion in T cell activation, EC50” value worked out at 0.98 nM; the “IL-2 secretion in T cell activation, Top (best-fit)” value worked out at 191. Besides, in test [5], the “luciferase signal in T cell activation, Bottom (best-fit)” value turned out to be 11.6; the “luciferase signal in T cell activation, EC50” value was determined as 3.46 nM; the “luciferase signal in T cell activation, Top (best-fit)” value amounted to 117. In test [2], this molecule registered a Kd of 0.51 nM, a koff of 0.00033 s⁻¹ and an on-rate constant (kon) of 650000 M⁻¹ s⁻¹. In test [3], the “Bottom (best-fit)” value came to 12.9, the IC50 stood at 1.2 nM and the “Top (best-fit)” value stood at 66.5.

B8: 48B5G4E12 (antibody, V domains shown)
VH: QVQLQQPGAELVKPGASVKMSCKASGYTFTSYNMHWVKQTPGQGLEWIGGIYPGNGATSYNQKFKGKATLTADKSSSTAYMQLSSLTSEDSAVYYCARSGLRAMDYWGQGTSVTVSS
VL: QIVLTQSPAIMSASPGEKVTMTCSASSSVSYMYWYQQKTGSSPRLLIYDTSNLASGVPVRFSGSGSGTSYSLTISRMEAEDAATYYCQQWSSYPYTFGGGTKLEIK
notes: Mouse monoclonal antibody; also called mouse anti-human TIGIT monoclonal antibody 48B5G4E12
B8: in test [1], the “Bottom (best-fit)” value came to 9.18, the EC50 was 3.15 nM and the “Top (best-fit)” value was 346. In addition, in test [2], binding was put at a Kd of 11 nM, the koff was 0.0088 s⁻¹ and the on-rate constant (kon) came out at 840000 M⁻¹ s⁻¹. In addition, in test [3], the “Bottom (best-fit)” value was 64.6, the IC50 turned out to be 1.6 nM and the “Top (best-fit)” value was determined as 132.
